From patent US20170267750A1, “Method of Treating Ovarian and Renal Cancer Using Antibodies Against T Cell Immunoglobulin Domain and Mucin Domain 1 (TIM-1) Antigen” (Celldex Therapeutics, Inc., priority 2005, published 2017)

Target: TIM-1 (T cell, immunoglobulin domain and mucin domain 1), cell membrane-bound (human) (UniProt Q96D42)
Assay: FACS on polarized human CD4+ Th2 cells, 10 ug/mL mAb, goat anti-human PE (control antibody background)

Sequence of TIM-1 (T cell, immunoglobulin domain and mucin domain 1), cell membrane-bound (human) (Q96D42 21-364): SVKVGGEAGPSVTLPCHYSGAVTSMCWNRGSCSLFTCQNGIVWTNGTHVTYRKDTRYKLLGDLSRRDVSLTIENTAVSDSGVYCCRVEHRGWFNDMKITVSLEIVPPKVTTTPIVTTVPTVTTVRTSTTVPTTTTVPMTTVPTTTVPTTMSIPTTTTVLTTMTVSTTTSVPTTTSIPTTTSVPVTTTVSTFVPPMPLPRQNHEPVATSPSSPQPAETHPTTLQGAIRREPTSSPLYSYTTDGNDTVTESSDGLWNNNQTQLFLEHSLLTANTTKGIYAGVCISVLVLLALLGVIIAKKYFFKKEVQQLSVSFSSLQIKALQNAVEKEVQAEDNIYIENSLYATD

Geometric mean of fluorescence intensity: 8.4
Substance: isotype matched control mAb PK16.3 (antibody)
